Assay [1] concerns the target yeast Golgi t-SNARE complex Sed5/Sec22/Bos1 with D196del Bos1, preassembled and reconstituted into acceptor liposomes (S. cerevisiae) (UniProt Q01590).
Assay [2] has as its target yeast Golgi t-SNARE complex Sed5/Sec22/Bos1 with G176W Bos1, preassembled and reconstituted into acceptor liposomes (S. cerevisiae) (UniProt Q01590).

B1: yeast Golgi v-SNARE Bet1, reconstituted into fluorescent donor liposomes (natural protein)
chain: MSSRFAGGNAYQRDTGRTQLFGPADGSNSLDDNVSSALGSTDKLDYSQSTLASLESQSEEQMGAMGQRIKALKSLSLKMGDEIRGSNQTIDQLGDTFHNTSVKLKRTFGNMMEMARRSGISIKTWLIIFFMVGVLFFWVWIT
On to B1, for which the liposome fusion assay (NBD fluorescence), reduction in fusion against WT Bos1; still above the control without Bet1 (% reduction in fusion) amounted to 60 in assay [1] and 30 in assay [2].
